# Assay results reported in the DeepSol protein solubility set.
# Test: soluble on expression in E. coli; label from the status in PepcDB or PDB records
row,Sequence,soluble on expression in E. coli
1,MGSDKIHHHHHHMSNRIKNIHYGTQRQQLKNLTKKEYQALREMCFLAKNLYNVGTYNVRQHYFNQGEHLNYEANYHVCKENENYKLLNSNIAQQILKEVDSSFRSFFGLIKLAKEGKYDFRGIKSPKYLDKEGFFSIIIGQIRIKEDGILNVPMSPAFKKLYGKVSIKVPQNILEKKIKEIRIIPKHKARFFEIQYCYEIPKSEEVSNQKNALAIDLGLENLCTCVTNLGDSFIIDGKRLKSVNQWANKQNDKIEALKLKKNITAITRKQFKVWNKRNNQVKDYVNKTCFYIIDYCVKNNIGNLIVGYNAKLEKSDNMERKIYRNFIRIPFGEIKGKLEYLCKIKNINFIRQEESYTSKSDFFADDFLPDINVDNVKKYDFKGERITRGQYKSSVGIIINADVNASLNILKKSQVVNLSNLQNNPQILKQPQRVRIS,not soluble
2,MGSDKIHHHHHHMSNRQEQPHFNDWFQARGITEVECLVTDLTGILKGKIMPAGKYLGGGRPRLPDSIFIQTVTGGYPDDDDIHFWNPAERDMELVPDPNAVFLVPWADDPTAQIIHDCHYLTGEPVELAPRHVLKRVLACYQARGWKPVVAPEVEFFLVKTNTDSDYPLEPPIGRNGRQESSRQSFSIDAVNEFDPLFEEMYDYCDAMSLDLDTLIHEEGAGQMEVNFQHGDPLHLADQVVMFKRALRETALRHGMYATFMAKPMANEPGSSMHLHQSLLDAQSGDNLFASDNGQSSRLFQHFIGGLQRYLPASMPLLAPNVNSYRRLMRTETSGSAPINVEWGTDNRTVGLRVPVSTPEATRVENRLAGADANPYLVMAASLACGYLGMLGQLEPRPPMVGSAWSGGHKLPDDIRPALDMLSECQPLAEILGERFTNSYLAVKRAEHREYFQVISSWEREHLLLRV,not soluble
3,MGSDKIHHHHHHMSNTVRAISPDITLFNKTLTFQEISQNTREAVIYIHGGAWNDPENTPNDFNQLANTIKSMDTESTVCQYSIEYRLSPEITNPRNLYDAVSNITRLVKEKGLTNINMVGHSVGATFIWQILAALKDPQEKMSEAQLQMLGLLQIVKRVFLLDGIYSLKELLIEYPEYDCFTRLAFPDGIQMYEEEPSRVMPYVKKALSRFSIDMHLVHSYSDELLTLRQTNCLISCLQDYQLSFKLYLDDLGLHNDVYKNGKVAKYIFDNIC,soluble
4,MGSDKIHHHHHHMSNVDHAEIAKFEALAHRWWDRESEFKPLHDINPLRVNWIDERAGLAGKKVLDIGCGGGILSEAMAQRGASVTGIDMGEAPLAVARLHQLESGVAVDYRQITAEQMAEEMPGQFDVVTCLEMLEHVPDPASVIRACHRLVKPGGQVFLSTINRNPKAYLFAVIGAEYILQLLPRGTHDFRKFIRPSELGAWSREAGLEVKDIIGLTYNPLTKHYKLANDVDVNYMVQTKREA,not soluble
5,MGSDKIHHHHHHMSPMTIPSEMKALLLVGDGYTKTPSGSALEAMEPYLEQGRIAVPAPGPSQVLIKVNLASINPSDVAFIKGQYGQPRVKGRPAGFEGVGTIVAGGDEPYAKSLVGKRVAFATGLSNWGSWAEYAVAEAAACIPLLDTVRDEDGAAMIVNPLTAIAMFDIVKQEGEKAFVMTAGASQLCKLIIGLAKEEGFRPIVTVRRDEQIALLKDIGAAHVLNEKAPDFEATLREVMKAEQPRIFLDAVTGPLASAIFNAMPKRARWIIYGRLDPDATVIREPGQLIFQHKHIEGFWLSEWMRQFKERRGPAILEAQKRFSDGRWSTDVTAVVPLAEAIAWVPAELTKPNGKVFIRP,not soluble
6,MGSDKIHHHHHHMSPRKPRSPTAPNSSASIAPIPRLMPKLFVLDSNVLMHDPTSLFRFQEHDIYITMTTLEELDNNKKGMSEVARNARQTSRFLDEIVSSAITDIDEGISLQLHGTKNATGRLFLQTQAITNVLPVYLASGSADNQIIGAVKFLHDTHQNRVVTLVSKDINMRIKARALGLAAEDYFNDKVLEDTDVLFSGIQELPEDFWDEHGKDMESWQQSGQTFYRVTGPLAGGFVINQFVYLEHDKPFYAQVKETSGRTAVLQTLKDYTHQKNNVWGITARNREQNFAFNLLMNPEVDFVTLLGQAGTGKTLLTLAAGLMQTLEHKVYSEIIMTRVTVPVGEDIGFLPGTEEEKMTPWMGALEDNLDVLNKTDSSAGEWGRAATLDLIRSRIKIKSLNFMRGRTFINKFLIIDEAQNLTPKQMKTLITRAGPATKVVCLGNIAQIDTPYLSEGSSGLTYVVDRFKGWNHSGHVTLQRGERSRLADYAAEIL,not soluble
7,MGSDKIHHHHHHMSPSIYPKSNYPDAAILSRLAQQIKGWGKALGFARVGICDTDLTSEEIKLQTWLDKGYHGEMAYMASHGMMRARPQELHPGTVRVISVRMDYLPPEAGFATNLTDPNLGYISRYAGGRDYHKLIRARLKKLGDHISAELIALGFDAADFRPFVDSAPVLERPLAEKAGIGWTGKHSLILNHDSGSWFFLGELFINLPLPVDIPIQEACNTCVACMTSCPTGAIVEPYVVDGRRCISYLTIELQGAIPEEFRPLMGNRIYGCDDCQLVCPINRQAPLTTEIDFHIRPQLKQPDLLSLFAWSEAEFLKQTEGSAIRRIGHKRWLRNIAVALGNAPANPIILEALTNRQESADVDEMVLEHIQWAIDAQQSRLAASNTLVQQKSRRQTARMVRIIEKGLPRDA,not soluble
8,MGSDKIHHHHHHMSQAPYFVPRAPYAEDPSKSKGRRFKEDESRTRTPFARDRDRIIHTSAFRRLKEKTQVFVAHEGDNFRTRLTHTLEVAQVARSLATALGLDADLAETIALAHDLGHPPFGHAGEDELEIQMREYGGFDHNVQTFRVVTELEHRYPDFIGLNLTWETLEGVIKHNGPVTNKLGKPSWKAISKYDNEYELGLGTWASAEAQVAALADDIAYNNHDVDDGVTAGLFTLDDLMDVPLIGPILAAVKSERPDLDARLTHLEAVRRMIGAMVDDVMGETLHRAAASGVQSADDVRALDHALVAFSSDMAEDLARLRGFLYERMYRHWRVNRTRSQARRILGEMFALFLREPEVLPTVWFAKSQNRDEAGRARVVCDYIAGMTDRFAIEEHRKLFHLDVWN,not soluble
9,MGSDKIHHHHHHMSQTLLPPGWVEKLCDPYAVLGISVIADDRQIFKRYHTLAKLLHPDRHAKNCNPDQKLATAIFSHLINPAYQQLKHRQKRLIAIAMLRSDARVSEQKPLSSQSAIAQEIMKMSTPEAELFYEEAIACYAEAQYKSLDQFYQVTQQITILNLVYLRLHKPDLFLPQKAVAIIPEVEVNPVELTLTDVKPVLTNYAQRHYQRAIEYVRLGKWVIAVQELRDAIKLEPNNSDYYALLGLVHLKQKFMGMARVYICQALKLNPQNSLALKYAPELKIKLGENTNPKSMAKAVSIAALLSRFTQRKGSQVKC,not soluble
10,MGSDKIHHHHHHMSRDKTLFVCQECGSISNKWLGRCPDCGAWNSFVEQRVEKTVAKSQTTYATASPPQFLHAVPITDVGRSTTGLAELDRVLGGGQVPGAAILLGGEPGIGKSTLLLQTAHHLAQVSKVLYVTGEESAAQVALRAQRLGLGRSPVRVVAENHLEAIEGLLRGEQPALVLVDSIQTVYTDTLQSAPGSVAQVRECAARLVRFAKATGTTVWLVGHVTKEGAIAGPRVLEHMVDTVLYFEGEAGSPYRIVRAIKNRFGAANELGVFQMHEEGLSEVANPSQLFLSQHERPVAGSVVLATQEGTRPLLVEVQALVTPSPLANPRRVAIGLDPNRLSLLLAILHRHGDSMFFDQDVFVNIAGGIKVNEPAADLAVALALVSSFRNKPLEGRRVVFGELGLAGEVRPVAGTEARVREAVKLGFKGAILPRSDKISAAATFKLHPAGRLGDAMEAAFAAE,not soluble
11,MGSDKIHHHHHHMSRTITIDPVTRIEGHATITIRLDDAGSVADARLHVTEFRGFEAFCVGRSIWEMPGITARICGICPISHSIASARAGDAILGVDIPPAAEQLRRIANLASLIQSHALSFFHLCAADLLLGMDHDPSRRSLWGLLESRPDVARRGIRLRQIGQQIVSNLAGERVHPSWAVPGGVREPLDAERRRKVVELLPEGIAIIRSAFELLDEIYGRHGAEVGTYGDFPSLFAGLVGEDGGLEHYDGMLRFTDSSGAVVEEVPPDHYDLAIGERSEPWSYMKFPFYRNHAGRDGGGMFRVGPLARLNLCERAGTPEADRELQTFRQLRGTGGVVTGSFHYHHARLIEILHALERIGELLDDPAILDRHVRSEAGVNRRHGVGFCEAPRGTLFHDYEVDDDGLILRLNLLIATGQNNLAMNRTILEVARSHIKGGKVSEGILNRIEHGIRAYDPCLSCATHVYGRMPFQVLLLAPDGTVVDEIAS,not soluble
